Laboratory results published in PMC7210945, “The pivot point arginines identified in the β-pinwheel structure of C-terminal domain from Salmonella Typhi DNA Gyrase A subunit”.

How the values were obtained:
[1] = molecular target: Salmonella enterica serovar Typhi DNA Gyrase A C-terminal domain (StGyrA-CTD) (Salmonella enterica serovar Typhi (CT18 strain)); assay: SEC
[2] = molecular target: StGyrA-CTD R667A R667A (Salmonella enterica serovar Typhi CT18) (UniProt A0A1U7FVV6); assay: fluorescence binding
[3] = molecular target: StGyrA-CTD R712A R712A (Salmonella enterica serovar Typhi CT18) (UniProt A0A1U7FVV6); assay: fluorescence binding
[4] = molecular target: StGyrA-CTD R716A R716A (Salmonella enterica serovar Typhi CT18) (UniProt A0A1U7FVV6); assay: fluorescence binding
[5] = molecular target: StGyrA-CTD R766A R766A (Salmonella enterica serovar Typhi CT18) (UniProt A0A1U7FVV6); assay: fluorescence binding
[6] = molecular target: StGyrA-CTD R817A R817A (Salmonella enterica serovar Typhi CT18) (UniProt A0A1U7FVV6); assay: fluorescence binding
StGyrA-CTD D692A = StGyrA-CTD D692A (Salmonella enterica serovar Typhi CT18, UniProt A0A1U7FVV6 530-840, D692A); assay: fluorescence binding; 1 mM Mg2+; settings: protein: recombinant; tags: C-terminal 6xHis; blunt
StGyrA-CTD wild type = StGyrA-CTD wild type (Salmonella enterica serovar Typhi CT18, UniProt A0A1U7FVV6 530-840); assay: fluorescence binding; 1 mM Mg2+; settings: protein: recombinant; tags: C-terminal 6xHis (pET-28a); chain copies: 2; blunt
StGyrA-CTD R612A = StGyrA-CTD R612A (Salmonella enterica serovar Typhi CT18, UniProt A0A1U7FVV6 530-840, R612A); assay: fluorescence binding; 1 mM Mg2+; text gives 220-250 nM for other mutants; settings: protein: recombinant; tags: C-terminal 6xHis; blunt

With “Salmonella enterica serovar Typhi DNA Gyrase A C-terminal domain (StGyrA-CTD) (domain or fragment)” the stoichiometry N [1] was 2.

For “TAAAGTCTAGAGACACGCATAGTCAATGACGGAGTTA (double strand) [FAM-37 bp DNA]”, the Kd [2] was 263 nM, the Kd [3] was 231 nM and the Kd [4] was 277 nM. It also gave a Kd [5] of 221 nM and a Kd [6] of 204 nM.

B1: FAM-37 bp DNA (dsDNA)
DNA 1: TAAAGTCTAGAGACACGCATAGTCAATGACGGAGTTA
DNA 2: TAACTCCGTCATTGACTATGCGTGTCTCTAGACTTTA
For B1, the Kd (StGyrA-CTD D692A) was 129 nM, the Kd (StGyrA-CTD wild type) was 122 nM and the Kd (StGyrA-CTD R612A) was 135 nM.
